Key:
[1] = target: SIRK1-ECD-HA-StrepII (extracellular domain of SIRK1) (Arabidopsis); experiment: MST
[2] = target: SIRK1-ECD together with co-receptor QSK1-ECD (about 20 nM each) (Arabidopsis); experiment: MST

Kd [1]: 1440 nM
Kd [2]: 57 nM
Binder: VSGNVAARKGKQQTSSGKGGGTN [PEP7 (Elicitor Peptide 7), synthetic, untagged]
